Like-named read-outs stand apart in the source and are kept apart here.
Key:
[1] = molecular target: C5a receptor C5aR (CD88) on human blood neutrophils (human) (UniProt P21730); test: cell-based or functional assay
[2] = molecular target: C5a receptor C5aR (CD88) on human blood neutrophils (human) (UniProt P21730); test: cell-based or functional assay; remark: listed apart in the source

C5a receptor C5aR (CD88) on human blood neutrophils (human), sequence (P21730 whole entry): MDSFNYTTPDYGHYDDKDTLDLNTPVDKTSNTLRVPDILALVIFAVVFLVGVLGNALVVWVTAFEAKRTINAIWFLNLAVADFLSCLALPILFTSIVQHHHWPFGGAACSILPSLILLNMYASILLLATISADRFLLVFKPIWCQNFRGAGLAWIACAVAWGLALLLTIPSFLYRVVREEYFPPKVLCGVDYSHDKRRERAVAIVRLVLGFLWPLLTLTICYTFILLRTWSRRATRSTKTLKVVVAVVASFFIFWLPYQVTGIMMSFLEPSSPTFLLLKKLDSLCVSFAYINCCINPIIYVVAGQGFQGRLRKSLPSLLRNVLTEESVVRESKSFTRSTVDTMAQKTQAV

PMX-53 (peptide)
Blocking activity (%) on CD11b upregulation; Pat. 088|PMX 53 (20 µM) [1]: 104% | Blocking activity (%) on CD11b upregulation; Pat. 092|PMX 53 (20 µM) [1]: 109% | Blocking activity (%) on CD11b upregulation; huPP|rhC5a|PMX 53 (20 µM) [1]: 108% | CD11b (mean MFI); Pat. 088|PMX 53 (20 µM) [1]: 2030 MFI | CD11b (mean MFI); Pat. 092|PMX 53 (20 µM) [1]: 1910 MFI | CD11b (mean MFI); huPP|rhC5a|PMX 53 (20 µM) [1]: 1850 MFI | Blocking activity (%) on CD11b upregulation; Pat. 088|PMX 53 (50 nM) [2]: 55.5% | Blocking activity (%) on CD11b upregulation; Pat. 092|PMX 53 (50 nM) [2]: 56.7% | Blocking activity (%) on CD11b upregulation; huPP|rhC5a|PMX 53 (50 nM) [2]: 50.3% | CD11b (mean MFI); Pat. 088|PMX 53 (50 nM) [2]: 4730 MFI | CD11b (mean MFI); Pat. 092|PMX 53 (50 nM) [2]: 4660 MFI | CD11b (mean MFI); huPP|rhC5a|PMX 53 (50 nM) [2]: 4240 MFI

anti-C5aR (CD88) antibody Clone 7H110
Blocking activity (%) on CD11b upregulation; Pat. 088|Clone 7H110 (50 nM) [2]: 75.7% | Blocking activity (%) on CD11b upregulation; Pat. 092|Clone 7H110 (50 nM) [2]: 78.7% | Blocking activity (%) on CD11b upregulation; huPP|rhC5a|Clone 7H110 (50 nM) [2]: 70.7% | CD11b (mean MFI); Pat. 088|Clone 7H110 (50 nM) [2]: 3560 MFI | CD11b (mean MFI); Pat. 092|Clone 7H110 (50 nM) [2]: 3390 MFI | CD11b (mean MFI); huPP|rhC5a|Clone 7H110 (50 nM) [2]: 3380 MFI

anti-C5aR (CD88) antibody Clone S5/1
Blocking activity (%) on CD11b upregulation; Pat. 088|Clone S5/1 (50 nM) [2]: 72.7% | Blocking activity (%) on CD11b upregulation; Pat. 092|Clone S5/1 (50 nM) [2]: 75.9% | Blocking activity (%) on CD11b upregulation; huPP|rhC5a|Clone S5/1 (50 nM) [2]: 73% | CD11b (mean MFI); Pat. 088|Clone S5/1 (50 nM) [2]: 3740 MFI | CD11b (mean MFI); Pat. 092|Clone S5/1 (50 nM) [2]: 3560 MFI | CD11b (mean MFI); huPP|rhC5a|Clone S5/1 (50 nM) [2]: 3290 MFI

recombinant human C5a (from UniProt P01031 678-751) (ligand)
CD11b (mean MFI) on blood neutrophils; huPP|rhC5a (20 nM), no blocker [1]: 8330 MFI | CD11b (mean MFI) on blood neutrophils; huPP|rhC5a (20 nM), no blocker [2]: 6330 MFI
